This series relates to Escherichia coli TOP10. The series is described as follows: shrunken log2 fold change of peptide-encoding DNA abundance (4.5 h post-induction vs induction); higher = less antimicrobial activity (less host growth inhibition). The note with it: time post-induction: 4.5 h; library: site-saturation at positions 5, 18, 19, 20.

This note sets out measurements from the supplement of paper PMC9112550, “Optimization of the antimicrobial peptide Bac7 by deep mutational scanning” (BMC Biology, 2022).
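Note: peptides expressed intracellularly from a pBAD plasmid library in pooled LB shake-flask culture, induced with 0.3% L-arabinose, DNA abundance read by NGS, three biological replicates, DESeq2 with apeglm shrinkage.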

With RRIRLRPPRLPRPRPRPPFHPRP, the “shrunken log2 fold change” value is -0.0331.
Turning to RRIRDRPPRLPRPRPRPHNFPRP, the “shrunken log2 fold change” value is 0.0112.
The value for RRIRYRPPRLPRPRPRPRVWPRP was 1.85.
As for RRIRSRPPRLPRPRPRPFWIPRP, the figure is -0.299; as for RRIRRRPPRLPRPRPRPESVPRP, 0.075; as for RRIRGRPPRLPRPRPRPNDMPRP, -0.0212.
As for RRIRYRPPRLPRPRPRPDMHPRP, the figure is -0.231; as for RRIRLRPPRLPRPRPRPRNYPRP, -0.0808; as for RRIRFRPPRLPRPRPRPSNLPRP, -0.56.
Regarding RRIRKRPPRLPRPRPRPPLKPRP, the “shrunken log2 fold change” value was found to be 0.419.
The value for RRIRLRPPRLPRPRPRPIELPRP was 0.00435; that for RRIRGRPPRLPRPRPRPGHNPRP was 0.0636.
The value for RRIRDRPPRLPRPRPRPCSFPRP was -0.0466; that for RRIRNRPPRLPRPRPRPDKPPRP was -0.14; that for RRIRERPPRLPRPRPRPNENPRP was -0.111.
As to RRIRVRPPRLPRPRPRPLCHPRP, the “shrunken log2 fold change” value was -0.364.
As for RRIRTRPPRLPRPRPRPRNFPRP, the figure is 0.172; as for RRIRDRPPRLPRPRPRPVHQPRP, -0.0516; as for RRIRIRPPRLPRPRPRPMRSPRP, 0.000106.
As for RRIRLRPPRLPRPRPRPREAPRP, the figure is 0.641; as for RRIRPRPPRLPRPRPRPHIKPRP, -0.454; as for RRIRKRPPRLPRPRPRPDQKPRP, 0.401.
For the sequence RRIRRRPPRLPRPRPRPNLRPRP, the “shrunken log2 fold change” value worked out at 0.00766.
The value for RRIRVRPPRLPRPRPRPEFMPRP was -0.0942; that for RRIRARPPRLPRPRPRPQEHPRP was 0.515.
On to RRIRCRPPRLPRPRPRPSGVPRP, for which the “shrunken log2 fold change” value is -0.311.
The value for RRIRPRPPRLPRPRPRPVCKPRP was 0.0717; that for RRIRSRPPRLPRPRPRPPVAPRP was 0.403; that for RRIRHRPPRLPRPRPRPHSPPRP was -0.468.
The value for RRIRHRPPRLPRPRPRPSNWPRP was -0.106; that for RRIRCRPPRLPRPRPRPNAWPRP was -0.247.
Take RRIRTRPPRLPRPRPRPICTPRP: the “shrunken log2 fold change” value worked out at 0.409.
The value for RRIRWRPPRLPRPRPRPMQYPRP was 0.0439.
RRIRKRPPRLPRPRPRPKDKPRP: the “shrunken log2 fold change” value is 0.388.
As for RRIRARPPRLPRPRPRPWRAPRP, the figure is 0.338.
RRIRYRPPRLPRPRPRPSPVPRP: the “shrunken log2 fold change” value was -0.612.
Regarding RRIRLRPPRLPRPRPRPRCIPRP, the “shrunken log2 fold change” value was -0.0325.
RRIRTRPPRLPRPRPRPDKKPRP: the “shrunken log2 fold change” value is -0.0143.
Consider RRIRRRPPRLPRPRPRPWFQPRP, for which the “shrunken log2 fold change” value is -0.0671.
On to RRIRYRPPRLPRPRPRPPWLPRP, for which the “shrunken log2 fold change” value came out at 1.46.
As for RRIRMRPPRLPRPRPRPDGDPRP, the “shrunken log2 fold change” value was 0.0211.
On to RRIRKRPPRLPRPRPRPDMKPRP, for which the “shrunken log2 fold change” value is -0.0241.
As for RRIRDRPPRLPRPRPRPGIMPRP, the “shrunken log2 fold change” value is 0.0786.
As to RRIRARPPRLPRPRPRPLCYPRP, the “shrunken log2 fold change” value is -0.0201.
RRIRYRPPRLPRPRPRPEPCPRP: the “shrunken log2 fold change” value turned out to be 0.189.
Turning to RRIRHRPPRLPRPRPRPIRNPRP, the “shrunken log2 fold change” value is -0.387.
Take RRIRDRPPRLPRPRPRPTNIPRP: the “shrunken log2 fold change” value was -0.271.
As for RRIRARPPRLPRPRPRPHLEPRP, the figure is -0.124; as for RRIRMRPPRLPRPRPRPSWTPRP, -0.0874; as for RRIRRRPPRLPRPRPRPKWQPRP, -0.175.
As for RRIRCRPPRLPRPRPRPIKHPRP, the figure is -0.389; as for RRIRARPPRLPRPRPRPEYTPRP, -0.0194; as for RRIRIRPPRLPRPRPRPYQFPRP, -0.141.
The value for RRIRNRPPRLPRPRPRPACNPRP was -0.148; that for RRIRNRPPRLPRPRPRPSPYPRP was -0.507.
RRIRGRPPRLPRPRPRPWSDPRP: the “shrunken log2 fold change” value was 0.0554.
For the sequence RRIRVRPPRLPRPRPRPRYPPRP, the “shrunken log2 fold change” value was -0.294.
The value for RRIRLRPPRLPRPRPRPLLKPRP was -0.163; that for RRIRWRPPRLPRPRPRPCENPRP was 0.285; that for RRIRSRPPRLPRPRPRPGPPPRP was 0.46.
Take RRIRLRPPRLPRPRPRPASRPRP: the “shrunken log2 fold change” value amounted to 0.00832.
As for RRIRVRPPRLPRPRPRPIWGPRP, the figure is 0.0376; as for RRIRVRPPRLPRPRPRPRTPPRP, 0.555; as for RRIRARPPRLPRPRPRPFLRPRP, 0.0973.
For the sequence RRIRWRPPRLPRPRPRPHEHPRP, the “shrunken log2 fold change” value is 0.0185.
As to RRIRQRPPRLPRPRPRPLVNPRP, the “shrunken log2 fold change” value is -0.0122.
As for RRIRNRPPRLPRPRPRPTQVPRP, the figure is 0.152.
RRIRSRPPRLPRPRPRPAGGPRP: the “shrunken log2 fold change” value is 0.529.
As for RRIRPRPPRLPRPRPRPQDQPRP, the figure is -0.126.
Consider RRIRWRPPRLPRPRPRPNLTPRP, for which the “shrunken log2 fold change” value was -0.222.
The value for RRIRPRPPRLPRPRPRPVSEPRP was -0.0288; that for RRIRKRPPRLPRPRPRPNRHPRP was -0.0212; that for RRIRGRPPRLPRPRPRPLWPPRP was 0.836.
On to RRIRVRPPRLPRPRPRPDWQPRP, for which the “shrunken log2 fold change” value amounted to 0.0968.
As for RRIRHRPPRLPRPRPRPTIDPRP, the figure is -0.252.
As for RRIRNRPPRLPRPRPRPLRNPRP, the figure is 0.267; as for RRIRLRPPRLPRPRPRPYLFPRP, -0.602.
As for RRIRIRPPRLPRPRPRPCWGPRP, the figure is 0.162; as for RRIRRRPPRLPRPRPRPGDEPRP, -0.0622.
Regarding RRIRTRPPRLPRPRPRPYKQPRP, the “shrunken log2 fold change” value is -0.0217.
As for RRIRNRPPRLPRPRPRPNDKPRP, the figure is -0.549; as for RRIRARPPRLPRPRPRPEWSPRP, 0.949.
Consider RRIRFRPPRLPRPRPRPIEIPRP, for which the “shrunken log2 fold change” value is -0.143.
With RRIRSRPPRLPRPRPRPNCFPRP, the “shrunken log2 fold change” value came to 0.0876.
For the sequence RRIRARPPRLPRPRPRPYRRPRP, the “shrunken log2 fold change” value was -0.174.
For the sequence RRIRTRPPRLPRPRPRPRFDPRP, the “shrunken log2 fold change” value turned out to be 0.332.
For the sequence RRIRVRPPRLPRPRPRPMEDPRP, the “shrunken log2 fold change” value came out at 0.0593.
As for RRIRNRPPRLPRPRPRPLTEPRP, the figure is 0.284; as for RRIRARPPRLPRPRPRPVYMPRP, -0.436; as for RRIRWRPPRLPRPRPRPCDFPRP, 0.123.
For RRIRQRPPRLPRPRPRPLYHPRP, the “shrunken log2 fold change” value was -0.283.
